Patent US20140087995A1 (published 2014)
Numbered stars: 1 amine (or outer) side, 2 acyl side, 3 side chain; on linkers, the order of the positions; unused ones are H or OH. Bridge positions count the residues as written; N and C are the ends. Side chains are listed from the residue outwards. Ends that are not written are not given here. * marks the point of attachment. C20 diacid = O=C(O)CCCCCCCCCCCCCCCCCCC(=O)*; γGlu = O=C(O)[C@H](CCC(=O)[*:2])N[*:1]; AEEA = NCCOCCOCC(=O)O

T1: human calcitonin receptor (human, UniProt P30988 25-474)
T1 construct: whole, on cells; Membranes prepared from a stably transfected BHK cell line (Assay VII); also called hCTR; hCT
T1 sequence (looked up): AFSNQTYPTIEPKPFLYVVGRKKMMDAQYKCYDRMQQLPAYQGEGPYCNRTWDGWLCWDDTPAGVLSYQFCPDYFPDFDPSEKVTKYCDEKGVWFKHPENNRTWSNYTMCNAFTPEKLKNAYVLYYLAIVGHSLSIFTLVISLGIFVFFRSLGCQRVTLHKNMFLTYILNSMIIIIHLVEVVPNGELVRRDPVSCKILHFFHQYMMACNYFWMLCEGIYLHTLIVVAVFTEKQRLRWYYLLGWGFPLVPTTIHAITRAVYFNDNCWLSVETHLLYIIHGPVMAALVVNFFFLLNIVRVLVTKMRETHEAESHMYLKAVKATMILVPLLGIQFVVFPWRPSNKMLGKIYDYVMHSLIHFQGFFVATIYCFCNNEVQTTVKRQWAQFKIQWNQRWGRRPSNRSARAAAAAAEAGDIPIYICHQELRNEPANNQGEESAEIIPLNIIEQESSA

T2: rat amylin receptor (rat calcitonin receptor + rat RAMP 3) (rat, UniProt P32214 25-516; Q9JJ73 23-147)
T2 construct: whole, on cells; Membranes prepared from transiently transfected BHK tk'ts 13 cells (Assay VI); also called rAmylin-R; rAmylin
T2 sequence (looked up) 1: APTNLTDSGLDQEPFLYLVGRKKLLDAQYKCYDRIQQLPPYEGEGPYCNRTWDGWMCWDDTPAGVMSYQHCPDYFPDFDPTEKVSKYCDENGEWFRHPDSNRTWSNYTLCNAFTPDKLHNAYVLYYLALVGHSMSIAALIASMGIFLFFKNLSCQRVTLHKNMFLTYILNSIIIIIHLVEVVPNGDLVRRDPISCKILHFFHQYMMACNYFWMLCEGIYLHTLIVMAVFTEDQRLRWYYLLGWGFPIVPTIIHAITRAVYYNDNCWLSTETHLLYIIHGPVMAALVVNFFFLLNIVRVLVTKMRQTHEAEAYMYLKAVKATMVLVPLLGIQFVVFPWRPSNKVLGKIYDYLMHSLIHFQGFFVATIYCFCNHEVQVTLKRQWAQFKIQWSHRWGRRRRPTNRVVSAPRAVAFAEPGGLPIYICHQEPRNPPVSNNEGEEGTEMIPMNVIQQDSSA
T2 sequence (looked up) 2: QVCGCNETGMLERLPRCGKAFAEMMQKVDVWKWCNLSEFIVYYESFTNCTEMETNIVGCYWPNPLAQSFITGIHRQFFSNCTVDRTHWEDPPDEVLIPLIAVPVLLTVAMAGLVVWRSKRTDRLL

T3: rat calcitonin receptor (rat, UniProt P32214 25-516)
T3 construct: whole, on cells; Membranes prepared from transiently transfected BHK tk'ts 13 cells (Assay VIII); also called rCTR; rCT
T3 sequence (looked up): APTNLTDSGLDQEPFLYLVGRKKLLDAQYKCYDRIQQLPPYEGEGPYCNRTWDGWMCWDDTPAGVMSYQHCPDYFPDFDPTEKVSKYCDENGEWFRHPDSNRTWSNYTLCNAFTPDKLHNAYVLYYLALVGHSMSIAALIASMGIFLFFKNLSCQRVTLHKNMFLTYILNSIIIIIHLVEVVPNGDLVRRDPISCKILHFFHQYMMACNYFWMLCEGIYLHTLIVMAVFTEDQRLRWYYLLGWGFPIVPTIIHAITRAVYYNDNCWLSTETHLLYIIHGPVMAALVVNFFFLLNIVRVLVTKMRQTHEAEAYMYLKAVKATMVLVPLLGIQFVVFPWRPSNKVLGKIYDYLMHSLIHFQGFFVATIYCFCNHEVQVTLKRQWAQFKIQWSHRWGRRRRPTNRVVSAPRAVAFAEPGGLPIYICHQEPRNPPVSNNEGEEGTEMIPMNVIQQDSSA

B1: N^ε1-[2-[2-[2-[[(4S)-4-carboxy-4-(19-carboxynonadecanoylamino)butanoyl]amino]ethoxy]ethoxy]acetyl]-[Arg14,Arg17,Pro21,Pro27,Pro31]-h-amylin (peptide)
peptide: K([AEEA-γGlu-C20 diacid])CNTATCATQRLARFLRHSSPNFGAIPSSTPVGSNTY-NH2
modifications: disulfide 2-7; N-terminus assumed
SMILES: CC[C@H](C)[C@H](NC(=O)[C@H](C)NC(=O)CNC(=O)[C@H](Cc1ccccc1)NC(=O)[C@H](CC(N)=O)NC(=O)[C@@H]1CCCN1C(=O)[C@H](CO)NC(=O)[C@H](CO)NC(=O)[C@H](Cc1c[nH]cn1)NC(=O)[C@H](CCCNC(=N)N)NC(=O)[C@H](CC(C)C)NC(=O)[C@H](Cc1ccccc1)NC(=O)[C@H](CCCNC(=N)N)NC(=O)[C@H](C)NC(=O)[C@H](CC(C)C)NC(=O)[C@H](CCCNC(=N)N)NC(=O)[C@H](CCC(N)=O)NC(=O)[C@@H](NC(=O)[C@H](C)NC(=O)[C@@H]1CSSC[C@H](NC(=O)[C@@H](N)CCCCNC(=O)COCCOCCNC(=O)CC[C@H](NC(=O)CCCCCCCCCCCCCCCCCCC(=O)O)C(=O)O)C(=O)N[C@@H](CC(N)=O)C(=O)N[C@@H]([C@@H](C)O)C(=O)N[C@@H](C)C(=O)N[C@@H]([C@@H](C)O)C(=O)N1)[C@@H](C)O)C(=O)N1CCC[C@H]1C(=O)N[C@@H](CO)C(=O)N[C@@H](CO)C(=O)N[C@H](C(=O)N1CCC[C@H]1C(=O)N[C@H](C(=O)NCC(=O)N[C@@H](CO)C(=O)N[C@@H](CC(N)=O)C(=O)N[C@H](C(=O)N[C@@H](Cc1ccc(O)cc1)C(N)=O)[C@@H](C)O)C(C)C)[C@@H](C)O
notes: Analogue of human amylin; also called compound 64
B2: N^ε1-[2-[2-[2-[[(4S)-4-carboxy-4-(19-carboxynonadecanoylamino)butanoyl]amino]ethoxy]ethoxy]acetyl]-[Arg14,Arg17,Pro21,Pro27]-h-amylin (peptide)
peptide: K([AEEA-γGlu-C20 diacid])CNTATCATQRLARFLRHSSPNFGAIPSSTNVGSNTY-NH2
modifications: disulfide 2-7; N-terminus assumed
SMILES: CC[C@H](C)[C@H](NC(=O)[C@H](C)NC(=O)CNC(=O)[C@H](Cc1ccccc1)NC(=O)[C@H](CC(N)=O)NC(=O)[C@@H]1CCCN1C(=O)[C@H](CO)NC(=O)[C@H](CO)NC(=O)[C@H](Cc1c[nH]cn1)NC(=O)[C@H](CCCNC(=N)N)NC(=O)[C@H](CC(C)C)NC(=O)[C@H](Cc1ccccc1)NC(=O)[C@H](CCCNC(=N)N)NC(=O)[C@H](C)NC(=O)[C@H](CC(C)C)NC(=O)[C@H](CCCNC(=N)N)NC(=O)[C@H](CCC(N)=O)NC(=O)[C@@H](NC(=O)[C@H](C)NC(=O)[C@@H]1CSSC[C@H](NC(=O)[C@@H](N)CCCCNC(=O)COCCOCCNC(=O)CC[C@H](NC(=O)CCCCCCCCCCCCCCCCCCC(=O)O)C(=O)O)C(=O)N[C@@H](CC(N)=O)C(=O)N[C@@H]([C@@H](C)O)C(=O)N[C@@H](C)C(=O)N[C@@H]([C@@H](C)O)C(=O)N1)[C@@H](C)O)C(=O)N1CCC[C@H]1C(=O)N[C@@H](CO)C(=O)N[C@@H](CO)C(=O)N[C@H](C(=O)N[C@@H](CC(N)=O)C(=O)N[C@H](C(=O)NCC(=O)N[C@@H](CO)C(=O)N[C@@H](CC(N)=O)C(=O)N[C@H](C(=O)N[C@@H](Cc1ccc(O)cc1)C(N)=O)[C@@H](C)O)C(C)C)[C@@H](C)O
notes: Analogue of human amylin; also called compound 82
B3: N^ε1-[2-[2-[2-[[(4S)-4-carboxy-4-(19-carboxynonadecanoylamino)butanoyl]amino]ethoxy]ethoxy]acetyl]-[Arg17,Pro21,Pro27,Arg34]-h-amylin (peptide)
peptide: K([AEEA-γGlu-C20 diacid])CNTATCATQRLANFLRHSSPNFGAIPSSTNVGRNTY-NH2
modifications: disulfide 2-7; N-terminus assumed
SMILES: CC[C@H](C)[C@H](NC(=O)[C@H](C)NC(=O)CNC(=O)[C@H](Cc1ccccc1)NC(=O)[C@H](CC(N)=O)NC(=O)[C@@H]1CCCN1C(=O)[C@H](CO)NC(=O)[C@H](CO)NC(=O)[C@H](Cc1c[nH]cn1)NC(=O)[C@H](CCCNC(=N)N)NC(=O)[C@H](CC(C)C)NC(=O)[C@H](Cc1ccccc1)NC(=O)[C@H](CC(N)=O)NC(=O)[C@H](C)NC(=O)[C@H](CC(C)C)NC(=O)[C@H](CCCNC(=N)N)NC(=O)[C@H](CCC(N)=O)NC(=O)[C@@H](NC(=O)[C@H](C)NC(=O)[C@@H]1CSSC[C@H](NC(=O)[C@@H](N)CCCCNC(=O)COCCOCCNC(=O)CC[C@H](NC(=O)CCCCCCCCCCCCCCCCCCC(=O)O)C(=O)O)C(=O)N[C@@H](CC(N)=O)C(=O)N[C@@H]([C@@H](C)O)C(=O)N[C@@H](C)C(=O)N[C@@H]([C@@H](C)O)C(=O)N1)[C@@H](C)O)C(=O)N1CCC[C@H]1C(=O)N[C@@H](CO)C(=O)N[C@@H](CO)C(=O)N[C@H](C(=O)N[C@@H](CC(N)=O)C(=O)N[C@H](C(=O)NCC(=O)N[C@@H](CCCNC(=N)N)C(=O)N[C@@H](CC(N)=O)C(=O)N[C@H](C(=O)N[C@@H](Cc1ccc(O)cc1)C(N)=O)[C@@H](C)O)C(C)C)[C@@H](C)O
notes: Analogue of human amylin; also called compound 78

What was measured:
[1] = target: T1, human calcitonin receptor; assay: ratio of binding IC50s: human calcitonin receptor / human amylin receptor (reference)
Description: The resulting pellet was resuspended, homogenized and centrifuged (20.000 rpm, 15 min) in a buffer containing 20 mM Na-HEPES and 0.1 mM EDTA (pH 7.4, buffer 2). The resulting pellet was resuspended in buffer 2 and protein concentration was measured (BCA protein Assay, Pierce). The homogenate was kept cold during the whole procedure. The membranes were kept at −80° C. until use. The assay was performed in a 384 well Optiplate (PerkinElmer) in a total volume of 40 ul. Membranes were mixed with SPA beads. Final concentration of membranes 35 ng/μL final and SPA beads was 0.05 mg/well. Test-compounds were dissolved in DMSO and further diluted in assay buffer (50 mM Hepes, pH 7.4, 1 mM CaCl2, 5 mM MgCl₂, 0.1% OA and 0.02% Tween20). […] The final mixture was incubated with shaking at 400 rpm for 120 min at 25° C. prior to centrifugation (1500 rpm, 10 min). Samples were analyzed on TopCounter™ (Packard). The IC₅₀ was calculated using (one site binding competition analysis) GraphPad Prism5 as a measure of receptor affinity.
Membranes were prepared in the following way; the cells were rinsed with PBS and incubated with Versene for approximately 5 min before harvesting. The cells were flushed with PBS and the cell-suspension was centrifuged for 5 min at 1000 rpm. Cells were homogenized (Ultrathurrax) in a buffer containing 20 mM Na-HEPES and 10 mM EDTA (pH 7.4) and centrifuged at 20.000 rpm for 15 min. The resulting pellet was resuspended, homogenized and centrifuged (20.000 rpm, 15 min) in a buffer containing 20 mM Na-HEPES and 0.1 mM EDTA (pH 7.4, buffer 2). The resulting pellet was resuspended in buffer 2 and protein concentration was measured (BCA protein Assay, Pierce). The homogenate was kept cold during the whole procedure. The membranes were kept at −80° C. until use. Assay was performed in a 384 well Optiplate (PerkinElmer) in a total volume of 40 ul. Membranes were mixed with SPA beads.

[2] = target: T2, rat amylin receptor (rat calcitonin …); assay: SPA competition vs 125I-rat amylin, membranes of BHK cells with rat calcitonin receptor + rat RAMP3 (Assay VI)
Description: The binding assay was performed using scintillation proximity assay (SPA) beads (RPNQ0001) from PerkinElmer and cell membranes from the Amylin 3(a)/CRE-luc cells (as described in Assay (II)) were used. Membranes were prepared in the following way; the cells were rinsed with PBS and incubated with Versene for approximately 5 min before harvesting. The cells were flushed with PBS and the cell-suspension was centrifuged for 5 min at 1000 rpm. Cells were homogenized (ultrathurrax) in a buffer containing 20 mM Na-HEPES and 10 mM EDTA (pH 7.4) and centrifuged at 20.000 rpm for 15 min. The resulting pellet was resuspended, homogenized and centrifuged (20.000 rpm, 15 min) in a buffer containing 20 mM Na-HEPES and 0.1 mM EDTA (pH 7.4, buffer 2). The resulting pellet was resuspended in buffer 2 and protein concentration was measured (BCA protein Assay, Pierce). The homogenate was kept cold during the whole procedure. The membranes were kept at −80° C. until use. The assay was performed in a 384 well Optiplate (PerkinElmer) in a total volume of 40 ul. Membranes were mixed with SPA beads. Final concentration of membranes 35 ng/μL final and SPA beads was 0.05 mg/well. Test-compounds were dissolved in DMSO and further diluted in assay buffer (50 mM Hepes, pH 7.4, 1 mM CaCl2, 5 mM MgCl₂, 0.1% OA and 0.02% Tween20). […] The final mixture was incubated with shaking at 400 rpm for 120 min at 25° C. prior to centrifugation (1500 rpm, 10 min). Samples were analyzed on TopCounter™ (Packard). The IC₅₀ was calculated using (one site binding competition analysis) GraphPad Prism5 as a measure of receptor affinity.
Cells were grown in DMEM with 10% FBS and 1% Pen/Strep. Approximately 48 hours after transfection, the cells were harvested and membranes were prepared.

rat calcitonin receptor [3] = target: T3, rat calcitonin receptor; assay: ratio of binding IC50s: rat calcitonin receptor / rat amylin receptor (reference)
rat calcitonin receptor [4] = target: T3, rat calcitonin receptor; assay: SPA competition vs 125I-calcitonin, membranes of BHK cells with rat calcitonin receptor (Assay VIII)

Binder	Ratio hCT/hAmylin binding [1]	IC50 [2]	Ratio rCT/rAmylin binding (rat calcitonin receptor [3])	IC50 (rat calcitonin receptor [4])
B1	126	1.97 nM	64.7	128 nM
B2	140	1.64 nM	87	143 nM
B3	60.7	1.3 nM	69.9	90.6 nM
